Source: doi:10.1101/2025.06.27.661840 (bioRxiv, 2025)
Read-outs that look alike come from different tables or passages of the source.

Tests used:
Experiment in all cases: cryo-EM structure
[1] = target: large tegument protein VP1/2 (ORF22) (Varicella-zoster virus (parental Oka strain, recombinant pOka-TK-RFP)) (UniProt P09278)
cryo-EM structure [2] = target: the molecule itself
cryo-EM structure [3] = target: the molecule itself; remark: listed apart in the source

| Molecule | stoichiometry N (cryo-EM structure [2]) | also measured |
| --- | --- | --- |
| large tegument protein VP1/2 (ORF22), P09278 1-2763 | – | stoichiometry N [1]: 2 |
| major capsid protein (MCP; ORF40) (natural protein, UniProt P09245 1-1396, looked up) MTTVSCPANVITTTESDRIAGLFNIPAGIIPTGNVLSTIEVCAHRCIFDFFKQIRSDDNSLYSAQFDILLGTYCNTLNFVRFLELGLSVACICTKFPELAYVRDGVIQFEVQQPMIARDGPHPVDQPVHNYMVKRIHKRSLSAAFAIASEALSLLSNTYVDGTEIDSSLRIRAIQQMARNLRTVLDSFERGTADQLLGVLLEKAPPLSLLSPINKFQPEGHLNRVARAALLSDLKRRVCADMFFMTRHAREPRLISAYLSDMVSCTQPSVMVSRITHTNTRGRQVDGVLVTTATLKRQLLQGILQIDDTAADVPVTYGEMVLQGTNLVTALVMGKAVRGMDDVARHLLDITDPNTLNIPSIPPQSNSDSTTAGLPVNARVPADLVIVGDKLVFLEALERRVYQATRVAYPLIGNIDITFIMPMGVFQANSMDRYTRHAGDFSTVSEQDPRQFPPQGIFFYNKDGILTQLTLRDAMGTICHSSLLDVEATLVALRQQHLDRQCYFGVYVAEGTEDTLDVQMGRFMETWADMMPHHPHWVNEHLTILQFIAPSNPRLRFELNPAFDFFVAPGDVDLPGPQRPPEAMPTVNATLRIINGNIPVPLCPISFRDCRGTQLGLGRHTMTPATIKAVKDTFEDRAYPTIFYMLEAVIHGNERNFCALLRLLTQCIRGYWEQSHRVAFVNNFHMLMYITTYLGNGELPEVCINIYRDLLQHVRALRQTITDFTIQGEGHNGETSEALNNILTDDTFIAPILWDCDALIYRDEAARDRLPAIRVSGRNGYQALHFVDMAGHNFQRRDNVLIHGRPVRGDTGQGIPITPHHDREWGILSKIYYYIVIPAFSRGSCCTMGVRYDRLYPALQAVIVPEIPADEEAPTTPEDPRHPLHAHQLVPNSLNVYFHNAHLTVDGDALLTLQELMGDMAERTTAILVSSAPDAGAATATTRNMRIYDGALYHGLIMMAYQAYDETIATGTFFYPVPVNPLFACPEHLASLRGMTNARRVLAKMVPPIPPFLGANHHATIRQPVAYHVTHSKSDFNTLTYSLLGGYFKFTPISLTHQLRTGFHPGIAFTVVRQDRFATEQLLYAERASESYFVGQIQVHHHDAIGGVNFTLTQPRAHVDLGVGYTAVCATAALRCPLTDMGNTAQNLFFSRGGVPMLHDNVTESLRRITASGGRLNPTEPLPIFGGLRPATSAGIARGQASVCEFVAMPVSTDLQYFRTACNPRGRASGMLYMGDRDADIEAIMFDHTQSDVAYTDRATLNPWASQKHSYGDRLYNGTYNLTGASPIYSPCFKFFTPAEVNTNCNTLDRLLMEAKAVASQSSTDTEYQFKRPPGSTEMTQDPCGLFQEAYPPLCSSDAAMLRTAHAGETGADEVHLAQYLIRDASPLRGCLPLPR | 6 | – |
| VZV portal protein (pORF54) (natural protein, UniProt P09302 1-769, looked up) MAEITSLFNNSSGSEEKRIASSVSIDQGLNGSNPNDQYKNMFDIYWNEYAPDIGFCTFPEEDGWMLIHPTTQSMLFRKILAGDFGYTDGQGIYSAVRSTETVIRQVQATVLMNALDATRYEDLAADWEHHIQQCNLHAGALAERYGLCGESEAVRLAHQVFETWRQTLQSSLLEFLRGITGCLYTSGLNGRVGFAKYVDWIACVGIVPVVRKVRSEQNGTPAPLNTYMGQAAELSQMLKVADATLARGAAVVTSLVECMQNVAIMDYDRTRLYYNYNRRLIMAKDDVTGMKGECLVVWPPVVCGEGVVFDSPLQRLSGEVLACYALREHARVCQVLNTAPLRVLIGRRNEDDRSHSTRAVDRIMGENDTTRAGSAASRLVKLIVNLKNMRHVGDITETVRSYLEETGNHILEGSGSVDTSQPGFGKANQSFNGGAMSGTTNVQSAFKTSVVNSINGMLEGYVNNLFKTIEGLKDVNSDLTERLQFKEGELKRLREERVKIKPSKGSHITMAEETRIADLNHEVIDLTGIIGDDAYIANSFQSRYIPPYGDDIKRLSELWKQELVRCFKLHRVNNNQGQEISVSYSNASISLLVAPYFSFILRATRLGFLVTQSEVHRSEEELCQAIFKKARTESYLSQIRILYEMQVRAEVIKRGPRRTPSPSWGLPDPTEDDERIPEPNKINNQYMHVGYKNLSHFMKGHPPERLRVHKVNAADSTLLDKIRANRRRGDGRWDVRNKYTQHFRLQRNDRQLTNTSRRGVGCERRDRRS | – | stoichiometry N (cryo-EM structure [3]): 12 |
| capsid triplex protein 2 (TRX2; ORF41) (natural protein, UniProt P09291 1-316, looked up) MAMPFEIEVLLPGELSPAETSALQKCEGKIITFSTLRHRASLVDIALSSYYINGAPPDTLSLLEAYRMRFAAVITRVIPGKLLAHAIGVGTPTPGLFIQNTSPVDLCNGDYICLLPPVFGSADSIRLDSVGLEIVFPLTIPQTLMREIIAKVVARAVERTAAGAQILPHEVLRGADVICYNGRRYELETNLQHRDGSDAAIRTLVLNLMFSINEGCLLLLALIPTLLVQGAHDGYVNLLIQTANCVRETGQLINIPPMPRIQDGHRRFPIYETISSWISTSSRLGDTLGTRAILRVCVFDGPSTVHPGDRTAVIQV | 2 | – |
| capsid vertex-specific component 2 (CVC2; ORF34) (natural protein, UniProt P09287 1-579, looked up) MTARYGFGSISFPNKCGIFLSTTKNFIAPNFPIHYWTAPAFELRGRMNPDLEKNTLTLKNAAAVAALDNLRGETITLPTEIDRRLKPLEEQLTRMAKVLDSLETAAAEAEEADAQSEECTRTEIIRNESIHPEVQIAKNDAPLQYDTNFQVDFITLVYLGRARGNNSPGIVFGPWYRTLQERLVLDRPVAARGVDCKDGRISRTFMNTTVTCLQSAGRMYVGDRAYSAFECAVLCLYLMYRTSNSVHEPQVSSFGNLIEHLPEYTETFVNYMTTHENKNSYQFCYDRLPRDQFHARGGRYDQGALTSHSVMDALIRLQVLPPAPGQFNPGVNDIIDRNHTAYVDKIQQAAAAYLERAQNVFLMEDQTLLRLTIDTITALLLLRRLLWNGNVYGDKLKNNFQLGLIVSEATGTPTNNVILRGATGFDGKFKSGNNNFQFLCERYIAPLYTLNRTTELTEMFPGLVALCLDAHTQLSRGSLGRTVIDISSGQYQDRLISLIALELEHRRQNVTSLPIAAVVSIHDSVMLQYERGLGMLMHQPRVRAALEESRRLAQFNVNSDYDLLYFVCLGVIPQFASTP | 2 | – |
